From the domain aggregation screens of Martell et al. (2025)

Experiment: soluble fraction after stress (log2 fold change); higher = more stays soluble; pooled small domains, quantitative proteomics
Settings: stress: 75 degC
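Further: 20 min heating vs room temperature control held 20 min.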

HMPLVIIRGIEGVFSSEEKAEAIRKVTDALVSVKGENVRGFAWVVFEEVKSGDWGIGGESITAEKVIMSL
soluble fraction (log2): 0.158

HMPMDDETWDALSLFAYKRYARENGWPLMIGAEALRDTFASYFPLDSSTWQDRSSHYLTYQDGIYTRT
soluble fraction (log2): -0.247

HMPMDYFELFNIPRNANRETIKKILDQEYEKYRARVVSPVLEIRHEAELMLVEISKAKQVLLG
soluble fraction (log2): -1.08

HMPMHPEDLKKLVSIEMPFGKHKGRIIADLPGNYLNWFAREGFPPGEIGRLLQLMQEIDHNGLSDLLKPLR
soluble fraction (log2): -0.521

HMPMNISDIIKQAREELGMTQEDLAERLEVSRQAVSKWELGASVPSPENLRLLEELLGVELPAP
soluble fraction (log2): -0.198

HMPNFDPSYILDFGDVIQLQLVGQKNQILEIPILRDGSVNLPDIGKIFLSGMSLEEATKIIKDTYSA
soluble fraction (log2): -0.931

HMPNGEAYQRFTYENDILEGRFEEWDSLGTDIVKGDYTAGVRHKKWLYYDSEGRRDKFVFLDMDSI
soluble fraction (log2): 0.116

HMPNNNDIVLDRVSFGYHEKEVLHGIDMTIREGTVNALVGPSGSGKSTIAKLIAGLWDVDGGSISF
soluble fraction (log2): 0.555

HMPNPSAGRVHIDALLPFDRVEVTDMQGSLLLDHSFSPRRAVDLDLNARGTLLYTLWSKGHLLGKGRVVR
soluble fraction (log2): -0.606

HMPNQLLELVEMEIRDLLNEYEFPGDDTPIIQGSALKALEDPMGPWGDKIMDLMDAVDSYIPDPE
soluble fraction (log2): -0.686

HMPPAIKTLMFMIQNKSLLKSPKQLAVVQQQLKKIKGVRDVLILLEEGKVMLKVNKHETIHEASIIRLLGG
soluble fraction (log2): -1.87

HMPPALTELLSVRTNASGTIDYLLPDRSAGLRVENGSKYSGMVPDSIYRLVAIYEIKDAKEPSAYIYTI
soluble fraction (log2): -0.0495

HMPPFDDILAEYYEPLYRHVRRMVVSHDDAKDVMQEAMLRIFQGLDGLKDPSAVRTWVWRIATNEALRH
soluble fraction (log2): -0.0914

HMPPPVDLDKKGYKLRGIVLEDGRSAAFVFVPAEKRVVVLRENASGPVRLLETGMRRIRLQTPEGAGYLEL
soluble fraction (log2): -1.36

HMPPQPATQNTKAQVMQLAREKELMAGEGRGANVEALEKFANEHGISLRGMTEEQAEQLVKLLMEYTP
soluble fraction (log2): -0.239

HMPPRFVPATGADLRRWLDVSGLTAEAAGDLLGVSGARFRQWLSRYRSAPLPDPVRALLVALLRP
soluble fraction (log2): -0.00746

HMPPSRFNELSMWFQEQLTEAGLKVDSGALKMLIEWLGQDQARLPSIIEVLVSTYGTKKKLTVDEIEPFL
soluble fraction (log2): -0.384

HMPPTSADGIEKYLASGMIRGVGPVYAKKLVSAFGDKVFDIIEAAPHQLQEVEGIGRVRAASILAAWAEQ
soluble fraction (log2): -0.549

HMPQLEDLEPLDSSGMVRRDGPHLVLAVGRHRGRHLEEVRDSDPSYLHWLLSPKGIEDIQAKEDIKTYLNL
soluble fraction (log2): -0.0235

HMPQLVGDVDGDGRVSVTDGEWIRASYGALPWYAGWRAAADLDGSRKIDVVDLELLRTKMGN
soluble fraction (log2): -0.334

HMPRIYSITINPEKIRTVIGPGGKVIKDITAKTGTKIEIDDSGKVDIFSPDEEHARMAVEIINTLTEE
soluble fraction (log2): 0.0671

HMPRKYFPFYFTFRETAQTMPPRLRAVFYEAIIEYGTTGKEPTLPKSIAGYWPLVKPTLDSAKAHYDAG
soluble fraction (log2): -3.62

HMPRNEIQRSVLNELVQWIKNNLAKKLTMQALSRFSGYSEWHLFRLFRHYFNMSPMAYIRQQRMQ
soluble fraction (log2): -0.366

HMPRPRIHSVVRGDTLYGISRQYGVAMSKLASLNGLKSPYRIMVGRSLRLPSAIEAERDRTAREVVQ
soluble fraction (log2): -1.53

HMPRVLSSYTLTLRHQPTAEAVALVRTLLSPAGSVEVKEDGRTLVVRDELAALSRIVGALRSFDH
soluble fraction (log2): -0.851

HMPRVSIEKIKKVVELLKHNPDYTYSKIGNIVGIGRKTVSGINNGKLYTDLVEELGINEFPI
soluble fraction (log2): -0.459

HMPRYQQIARQLKTAIEHGELKPGARLPSSRTWSQELGISRSTVESAYTELVAQGWLERRGQAGTFVSAQL
soluble fraction (log2): -1.04

HMPRYSGMFAAWLHKALARMGKSMSDSARSAFTERVELDYSSANNELQKLSLLVGDRKVITEADVMRAIG
soluble fraction (log2): -0.86

HMPSALGDKIRAARKALKLSLEDLAEKVSSSKSYMWELENRDEPNPGADLLMRIAAALNVTTEHLLGP
soluble fraction (log2): -0.28

HMPSDLQATLRAVQGMLQGVEGVDARLAGQRILLEGDSADARARERAAAIAGIFPGVVIDFVG
soluble fraction (log2): -0.263

HMPSEAVQNIIGNVKSKRRVATIGQARGLASNVIKEGKFDNVSNTAMVNRLIDLGIISNSIGYQ
soluble fraction (log2): -0.0616

HMPSEQGANKARDIIFRHHMKVDVWVGSWENARNYAEQAIKQGVKVIISRGGTAALLRHSLDTAIIKVR
soluble fraction (log2): 0.14

HMPSGLFEPIKKSELSIESIDLLKDQIRAFKQADIRITFGFLLDLITKGENPAYVNASKLFEQAWER
soluble fraction (log2): 0.141

HMPSPSTLAKVDPFLLVTNADSLLMARPDDSELRAAIITAHINLAKTNNSVDHYKEVLKIEPQNALANYN
soluble fraction (log2): 0.17

HMPSPTPEQVLKAFTDAAMQKNTVEELKQAFAKAWKMLEGTPEQHKAQDVYNIRRDELEGAA
soluble fraction (log2): 0.376

HMPSSIEGIEKYLGSGMIRGIGAVYAKRLVKQFGKDVFDIIEETPERLREVEGIGPIRAARIISGWADQ
soluble fraction (log2): -0.363

HMPTITSPMVGTFYRAPSPGAAPFIEVGDTVKKGQVIGIIEAMKLLNEVEADKDGVVQAFAAENGEL
soluble fraction (log2): -0.335

HMPTLNIVDGHIAASDGVRILSIHNVTGRRYATSSKLPAGIYIVVLMPAKAETPLTVKVIVEA
soluble fraction (log2): -1.42

HMPTMTDIPIKIIRSRRRTLAIEVREGGEVIVRAPLYSRKAEIDAFVKAHENWIITKYNLMITKQN
soluble fraction (log2): -3.51

HMPTPRVPMSKQRQILQLLQDGHLSTREIAAALHISKTSVGDIAKAARLAGLDWEAASKLSDEELSARIYK
soluble fraction (log2): -0.36

HMPTSPKANFLKELPQEFTRKQAVTIGDKLNIKERTVDNYLAKLEQAGYLVKPKAGYYQKIKS
soluble fraction (log2): -0.0924

HMPTTTFENLPDAKKKTIIAALLKEFSQSPLSKAQVAPIVKESQIARGAFYKYFVDLTDAYTYLYRQ
soluble fraction (log2): -0.0519

HMPTVLKQGSTGQEVKELQQALSKLGYRVTVTGEFDTATHYGVVRFQRKHRLTIDGIVGPQTLSKIRAHQK
soluble fraction (log2): -2.56

HMPVAPTYALTVKTDPPSANVRLLNSPTPYQPGVRLPSGNYDIEVTQSGYATRKESVRIADRDVALNIAL
soluble fraction (log2): 0.265

HMPVASNRDVNLDIGERVFVQEWAPNRTARVQYRGSPWEARLAPGAPAAAGEHRVSAVEGNWLVLEPA
soluble fraction (log2): -0.139

HMPVEFVKISIKPGHPWENQFVRDIVSLPDLLMVLILRGEERIIPNGNTKILVGDKIVLSALSPG
soluble fraction (log2): -2.2

HMPVEHVWHIAENGQTSGPYSKARMGRMAQEGQLTRDTHVWTPGQDGWMRAGDVTELAQLFT
soluble fraction (log2): 0.0383

HMPVFSLTPRELEILEWMSTPNTYRQIAAQLSVSEETVRSHAKNILEKMRQPNRAQAVLAAVKMGLIKL
soluble fraction (log2): -1.57

HMPVISGQDLRVLIRDTGRERDQGISFLDDGTMVVVEDARRLIGQEVTATVTRVHQTQTGRIVFAHLSN
soluble fraction (log2): -1.25

HMPVPSPAEQTATQLANIERHTGITVDGWTRAIAEAGAAKHGEIVAWLKQQGLTHGNANALAHAVRARQSG
soluble fraction (log2): 0.581

HMPVQSNRDALLDIGQTLQVQAWDAQGSARVSYRGSDWTAEFRGPGAAAPGLHRIIAVQGNRLIVEPA
soluble fraction (log2): 0.342

HMPVRIYEISKKLGLENKEVLATAKSLGIAAAKVPSSSLDKITAEYLEEEILKSHPEVAARLK
soluble fraction (log2): 0.142

HMPVYEEEVPAALDGQRLDRVVAMVTGLSRSEVGALLAAGAVTVDGTTPAKGSVRLAAGSIVSVTVS
soluble fraction (log2): -0.357

HMQAATGVVTASVLNIRQGPGTNYTKVGSLLKGAQVEIVGQNGAWSKIRLKSGITGWVNSSYLKTST
soluble fraction (log2): -1.84

HMQAGPEDIIRAKLKTAMPEAQIISIRPTPAGLYQVNAKGYESVFVTADGRYLFQGDLLEIQGDRIVNL
soluble fraction (log2): -0.186
